Experimental data: the DeepSol protein solubility set

Assay: soluble on expression in E. coli; label from the status in PepcDB or PDB records

| Sequence | soluble on expression in E. coli |
| --- | --- |
| MGSDKIHHHHHHACVATAFSQTIEKENKIDVQKKNSSAEVSGRQLPEAKNIEPKLPDIEAKKLATDDKSMQTYGLTPSSPASGLSPYSYDFPALLESNPTLTDFYNFRQHSMNGQLSFIGSAEQKTYLGLGQYVAVNAGIRWIPSQRFFVEAGGDLSRQFYLALPIARQDIAGIYTRMRYSLVRNVRLNVWGQYFMGGNTPPPAYNPLFPHTGVGASISVDVKKNTEVSVGAEYQYDKKSREWKMETSGRVSIGF | not soluble |
| MSLNNVIFSQKLYDTAQMIVDGCMGDADPACQTACPMHTDVKQYVRMAGEGNFQGALDLIRSKLFLPQTLGRICAHPCEASCRRNTEFGQPISVAGIKRFVAEKMDNQDHWDLNIAPLTNKHIAIVGAGPAGAQAAIELRRQGHEVTIYEKLDVYGGMMRVGIPEYRLPRDVIDFEYSYLAMLGIKTQFGVEIGKDISFDTLRSEHDAVILAHGAHVGSIIPLPGHDNDGVFSAVEYLKEISETRQFPRACKRVMVIGGGDVAMDCARSSWRIGASDVYQCSLESLESLPASQIEIDESLEEGVEFNAGWGPVAIEHENGKVTGITIKKVLSIFDEQGNFAPQYSEESKTISVDTVVFATGQIVADITDGALEQTRGGRYVVDKQTLASSLEDVFVAGDACGGNIVIEAMALGRKAAMSVERFLTARPLTEDRDFEQEYSYSSRLDVPLPKGTVDTPRLHGELRDAEERKQDFAQVDLGFTEEQIKQEASRCLQCSCKLCMTECIMMNDFSDCPKTIFSDFVNNKSMDPLLAYSCNACDQCTIVCPKDFPMKEMFLGARTDFVKANNGESPMPGHKAINMHQKLGFSKIFTMAKRAVSTKEGHHHHHH | not soluble |
| KGKKLAVIAVAEHEFNQSENNGPGSAPLDPVDNYYQIREAQAKADIVIVTIHGGNEHFHYPRPGLRKLCKHYIDLGVNAVICHHPHVPGAYEIYNGRPIVYSLGNFVFDTLSMVHEWDVGYMAKLKFNEVD | not soluble |
| MAHHHHHHMCVKCLFLARSEMAIEESACNDDSQAVTEATSERTVNSATVFRYPFNTMDLGWLVGYIDAFLVKSERWAAAMRLTTCFMTFTVLHEDPLMEDATFQLHKTMLDRSIKKSWPRRNRDLSNTFDAAYHVFETICIVSKYPNLDPAGKAGILRMSEKLIQGMEKPMDNVVIKIDLKKKSETLHATLARLQALGRAPESLSAFDALMASLKMVFFCYVASLGINNMMLDANLNKMDSYVCCEGCPCHAKLRTTYTLFIRDVEKTKVIDCLLIMAVKEDDAFLSKLAEGLFTQFDCRSPFLEKPVRRIQNGALFMVRIALFDAFRHVKALLVDLRASPASLAPQIDNVVLALYIARREMRGMKGLNEHLPLVNKALATADSIYSRLGTENASQELRTLKDYITKIFFLVSAPEFHLAVHSKDPLVGKGAKLCCGNPDCPGKVKEMLKCSGCRVTFYCSVTCQRDDWKTHRFLCKEMGCRKAAPAPIKMAECSTETLKPAAFHG | not soluble |
| MVRRRTASPSPSAPVRSAPRPAAQSSFAAPPPRPAAAAPAYHPPAAPTPMGAPMGAPSQGPGLMKQMAATAGGVAIGSAVGHAVGGMFTGGGSSHAEQAPAAAAAPAGAPQASGYSQPCEFEWRQFVDCAQNQSDVSLCNGFNDIFKQCKARYA | not soluble |
| MIKFGTGGWRAFIGEEFTKDNVRLVAQALANIIHHEQAANEGFVIGYDRRFLSDKAGRWFAEVLAANGVVVSFIDKFVPTPVVMFKAKAMDCAYSACITASHNPADYNGIKVFIRGGRDADEVITQKIEQQIATLTLQDVKSIDFDQAVNDKLIDIINPMNEFVDSIINFIDIEAIKKANLRVLIDPMFGVAKNALQTVLINGRCDVDVINDGKNPDFGGLMPSPSAATLYRLKHLVKHEGYDIGIGTDGDADRLGIIDEKGNFIHPNEVLILLYYYLLEYKGWKGSVVRNIATTHLLDKIAADHGERCFEVPVGFKHISSQMEADDSLIGGESSGGLTIRGHIKGKDGVFASSLLVEMISVTGKKLSELLTEIYDRYGYAYTAEGDCKFKPAQRDEIYNKVYIEKKLPEFEFDIDKVSYEDGAKVYFKNGGWVIARFSGTEPLLRIFAEMADKDTAERVLQQMKAFLAL | not soluble |
| MGLTAMGLTTMGLTTVGLATMGATTKISQQHFFKFSRSDPIVLLQYSYSTTTVPRPYPTNNSKPISLQKTKTQFFLNYSNPTVLLQYLYSTTTVPRPYPTTNPKLISLQQPKTPFLSPRIRLVLREHERCRGALSDVWVAGAARGAVRCAKLYNKTRHVIRKISANKRKLFPLFYCYTYIHTYKNQVSPEKNANQKGKRMFPRFMVGVALIFELNNYDIETSCSHSSSSFSARLSSADYEVYWARALQILHVGGVEIDEFGGG | not soluble |
